According to patent US20220281998A1 (AZUSAPHARMA SCIENCES, published 2022):

Columns and labels:
[1] = molecular target: human EGFR on human cancer cell lines (HCT116, A-431, NCI-H1975, HT-29, RKO) (human, UniProt P00533 25-1210); test: cell-based or functional assay
[2] = molecular target: T1, recombinant biotinylated HER2 (manufactured by ACROBiosystems) (human, UniProt P04626 23-652, biotinylated (site not stated)); test: sandwich ELISA: immobilised human CD3E/CD3D heterodimer, BsAb, detection with biotinylated HER2
T1 construct: also called human HER2

[3] = molecular target: T2, human CD3E/CD3D heterodimer recombinant protein (manufactured by ACROBiosystems) (human, UniProt P07766 23-126; P04234 22-105); test: ELISA, immobilised human CD3E/CD3D heterodimer, 10-1000 ng/mL BsAb, absorbance rose with concentration
T2 construct: Bought reagent, immobilised on ELISA plates
T2 sequence (P07766 23-126 limits assumed, chain 1 of 2): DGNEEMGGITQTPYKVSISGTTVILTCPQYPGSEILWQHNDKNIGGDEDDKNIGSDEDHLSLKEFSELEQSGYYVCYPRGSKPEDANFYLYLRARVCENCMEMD
T2 sequence (P04234 22-105 limits assumed, chain 2 of 2): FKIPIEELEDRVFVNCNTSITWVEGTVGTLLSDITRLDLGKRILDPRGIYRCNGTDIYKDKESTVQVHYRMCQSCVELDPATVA

B1: LH31 diabody-type BsAb (EGFR×CD3 diabody-type BsAb derived from DUM-31H strain) (bispecific antibody)
chain 1: ATLTPDIQMTQSPSSLSASVGDRVTITCRASQDIRNYLNWYQQKPGKAPKLLIYYTSRLESGVPSRFSGSGSGTDYTLTISSLQPEDFATYYCQQGNTLPWTFGQGTKVEIKAAGGGGSEVQLVESGGGLVQPGGSLRLSCAASGFTLSGDWIHWVRQAPGKGLEWLGEISAAGGYTDYADSVKGRFTISADTSKNTAYLQMNSLRAEDTAVYYCARESRVSFEAAMDYWGQGTLVTVSSAAAAEQKLISEEDLNLGGGMRGSHHHHHH
chain 2: ATLTPDIQMTQSPSSLSASVGDRVTITCRASQDLATDVAWYQQKPGKAPKLLIYSASFLYSGVPSRFSGSGSGTDFTLTISSLQPEDFATYYCQQSEPEPYTFGQGTKVEIKAAGGGGSEVQLVESGGGLVQPGGSLRLSCAASGYSFTGYTMNWVRQAPGKGLEWVALINPYKGVSTYNQKFKDRFTISVDKSKNTAYLQMNSLRAEDTAVYYCARSGYYGDSDWYFDVWGQGTLVTVSSAAAEQKLISEEDLNLGGGMRGSHHHHHH
notes: Heterodimer of polypeptides 1 and 2, secreted by Bifidobacterium longum 105-A carrying pLH31-L5, purified through the His tag; also called LH31 polypeptide 1 + LH31 polypeptide 2 with SP50-L5
EC50: concentration that reduced the viability of HCT116 cells to 50% (T-LAK:HCT116 5:1, 24 h) [1]: 32 pM
binding result [2]: no binding
binding result [3]: binds
